From the RNAGym collection of RNA variant scans (doi:10.7554/elife.80360)

B1: CPEB3 Ribozyme (parent)
chain: GGGGGCCACAGCAGAAGCGUUCACGUCGCGGCCCCUGUCAGAUUCUGGUGAAUCUGCGAAUUCUGCUGU

Variants of: B1
Test: self-cleavage, relative activity (ratio to wild type); higher = more cleavage; co-transcriptional
GGGGGCCACAGCAGAAGCGUUCACGCCGCGGCCCCUGUCAGAUUCUGGUGAACCUGCGAAUUCUGCUGU [U26C U53C] showed a self-cleavage of 0.882.
Variant GGGGGCCACAGCAGAAGCGUUCACGCCGCGGCCCCUGUCAGAUUCUGGUGAAUCAGCGAAUUCUGCUGU [U26C U55A] has a self-cleavage of 0.821.
GGGGGCCACAGCAGAAGCGUUCACGCCGCGGCCCCUGUCAGAUUCUGGUGAAUCCGCGAAUUCUGCUGU [U26C U55C] showed a self-cleavage of 0.833.
Variant GGGGGCCACAGCAGAAGCGUUCACGCCGCGGCCCCUGUCAGAUUCUGGUGAAUCUGCGACUUCUGCUGU [U26C A60C] has a self-cleavage of 0.233.
GGGGGCCACAGCAGAAGCGUUCACGCCGCGGCCCCUGUCAGAUUCUGGUGAAUCUGCGAUUUCUGCUGU [U26C A60U] showed a self-cleavage of 0.337.
Variant GGGGGCCACAGCAGAAGCGUUCACGCCGCGGCCCCUGUCAGAUUCUGGUGAAUCUGCGAAUUAUGCUGU [U26C C63A] has a self-cleavage of 0.614.
GGGGGCCACAGCAGAAGCGUUCACGCCGCGGCCCCUGUCAGAUUCUGGUGAAUCUGCGAAUUUUGCUGU [U26C C63U] gave a self-cleavage of 1.
With GGGGGCCACAGCAGAAGCGUUCACGCCGCGGCCCCUGUCAGAUUCUGGUGAAUCUGCGAAUUGUGCUGU [U26C C63G] the self-cleavage was 0.599.
In the case of GGGGGCCACAGCAGAAGCGUUCACGCCGCGGCCCGUGUCAGAUUCUGGUGAAUCUGCGAAUUCUGCUGU [U26C C35G], the self-cleavage is reported as 0.375.
For GGGGGCCACAGCAGAAGCGUUCACGCCGCGGCCCUUGUCAGAUUCUGGUGAAUCUGCGAAUUCUGCUGU [U26C C35U], the self-cleavage was 0.964.
GGGGGCCACAGCAGAAGCGUUCACGCCGCGGCCCCUGUCAGAUUCUGGUGAAUCUUCGAAUUCUGCUGU [U26C G56U] showed a self-cleavage of 0.854.
Work on GGGGGCCACAGCAGAAGCGUUCACGCCGCGGCCCCUGUCAGAUUCUGGUGAAUCUCCGAAUUCUGCUGU [U26C G56C] yielded a self-cleavage of 0.634.
In the case of GGGGGCCACAGCAGAAGCGUUCACGCCGCGGCCCCUGUCAGAUUCUCGUGAAUCUGCGAAUUCUGCUGU [U26C G47C], the self-cleavage is reported as 0.978.
With GGGGGCCACAGCAGAAGCGUUCACGCCGCGGCCCCUGUCAGAUUCUUGUGAAUCUGCGAAUUCUGCUGU [U26C G47U] the self-cleavage was 1.01.
With GGGGGCCACAGCAGAAGCGUUCACGCCGCGGCCCCUGUCAGAUUCUAGUGAAUCUGCGAAUUCUGCUGU [U26C G47A] the self-cleavage was 0.957.
GGGGGCCACAGCAGAAGCGUUCACGCCGCGGCCCCUGUCAGAGUCUGGUGAAUCUGCGAAUUCUGCUGU [U26C U43G] gave a self-cleavage of 0.735.
In the case of GGGGGCCACAGCAGAAGCGUUCACGCCGCGGCCCCUGUCAGAUCCUGGUGAAUCUGCGAAUUCUGCUGU [U26C U44C], the self-cleavage is reported as 0.941.
With GGGGGCCACAGCAGAAGCGUUCACGCCGCGGCCCCUGUCAGAUGCUGGUGAAUCUGCGAAUUCUGCUGU [U26C U44G] the self-cleavage was 1.02.
GGGGGCCACAGCAGAAGCGUUCACGCCGCGGCCCCUGUCAGAUACUGGUGAAUCUGCGAAUUCUGCUGU [U26C U44A] showed a self-cleavage of 0.953.
Work on GGGGGCCACAGCAGAAGCGUUCACGCCGCGGCCGCUGUCAGAUUCUGGUGAAUCUGCGAAUUCUGCUGU [U26C C34G] yielded a self-cleavage of 0.492.
In the case of GGGGGCCACAGCAGAAGCGUUCACGCCGCGGCCCCUGUCAGAUUCUGGUGAAUCUGCGAAUUCUGCUUU [U26C G68U], the self-cleavage is reported as 1.01.
GGGGGCCACAGCAGAAGCGUUCACGCCGCGGCCCCUGUCAGAUUCUGGUGAAUCUGCGAAUUCUGCUAU [U26C G68A] showed a self-cleavage of 1.03.
In the case of GGGGGCCACAGCAGAAGCGUUCACGCCGCGGCCCCUGUCAGAUUCUGGUGAAUCUGCGGAUUCUGCUGU [U26C A59G], the self-cleavage is reported as 1.05.
GGGGGCCACAGCAGAAGCGUUCACGCCGCGGCCCCUGUCAGAUUCUGGUGAAUCUGCGUAUUCUGCUGU [U26C A59U] showed a self-cleavage of 0.677.
For GGGGGCCACAGCAGAAGCGUUCACGCCGCGGCCCCAGUCAGAUUCUGGUGAAUCUGCGAAUUCUGCUGU [U26C U36A], the self-cleavage was 0.153.
In the case of GGGGGCCACAGCAGAAGCGUUCACGCCGCGGCCCCCGUCAGAUUCUGGUGAAUCUGCGAAUUCUGCUGU [U26C U36C], the self-cleavage is reported as 0.88.
Variant GGGGGCCACAGCAGAAGCGUUCACGCCGCGGCCCCUUUCAGAUUCUGGUGAAUCUGCGAAUUCUGCUGU [U26C G37U] has a self-cleavage of 0.205.
For GGGGGCCACAGCAGAAGCGUUCACGCCGCGGCCCCUAUCAGAUUCUGGUGAAUCUGCGAAUUCUGCUGU [U26C G37A], the self-cleavage was 0.317.
Work on GGGGGCCACAGCAGAAGCGUUCACGCCGCGGCCCCUGUCAGAUUCUGGUGAAUCUGCGAAUACUGCUGU [U26C U62A] yielded a self-cleavage of 0.832.
In the case of GGGGGCCACAGCAGAAGCGUUCACGCCGCGGCCCCUGUCAGAUUCUGGUGAAUCUGCGAAUCCUGCUGU [U26C U62C], the self-cleavage is reported as 0.732.
For GGGGGCCACAGCAGAAGCGUUCACGCCGCGGCCCCUGUCAGAUUCUGGUGAAUCUGCGAAUUCUGGUGU [U26C C66G], the self-cleavage was 0.692.
In the case of GGGGGCCACAGCAGAAGCGUUCACGCCGCGGCCCCUGUCAGAUUCUGGUGAAUCUGCGAAUUCUGAUGU [U26C C66A], the self-cleavage is reported as 0.585.
Work on GGGGGCCACAGCAGAAGCGUUCACGCCGCGGCCCCUGUCAGAUUCUGCUGAAUCUGCGAAUUCUGCUGU [U26C G48C] yielded a self-cleavage of 0.988.
Work on GGGGGCCACAGCAGAAGCGUUCACGCCGCGGCCCCUGUCAGAUUCUGAUGAAUCUGCGAAUUCUGCUGU [U26C G48A] yielded a self-cleavage of 0.982.
For GGGGGCCACAGCAGAAGCGUUCACGCCGCGACCCCUGUCAGAUUCUGGUGAAUCUGCGAAUUCUGCUGU [U26C G31A], the self-cleavage was 0.838.
Work on GGGGGCCACAGCAGAAGCGUUCACGCCGCGCCCCCUGUCAGAUUCUGGUGAAUCUGCGAAUUCUGCUGU [U26C G31C] yielded a self-cleavage of 0.193.
Variant GGGGGCCACAGCAGAAGCGUUCACGCCGCGUCCCCUGUCAGAUUCUGGUGAAUCUGCGAAUUCUGCUGU [U26C G31U] has a self-cleavage of 0.658.
GGGGGCCACAGCAGAAGCGUUCACGCCGCGGCCCCUGUCAGAUUCUGGUGAAUCUGAGAAUUCUGCUGU [U26C C57A] showed a self-cleavage of 0.209.
GGGGGCCACAGCAGAAGCGUUCACGCCGCGGCCCCUGUCAGAUUCUGGUGAAUCUGGGAAUUCUGCUGU [U26C C57G] showed a self-cleavage of 0.268.
